The text below walks through data of patent US20250388643A1, “GLUCAGON-LIKE PEPTIDE-2 COMPOSITIONS AND METHODS OF MAKING AND USING SAME” (Amunix Pharmaceuticals, Inc., priority 2011, published 2025).

Series [1] can be described thus: Analytical size exclusion chromatography of XTEN fusion proteins with diverse payloads. It is filed as physicochemical. The settings on record: SEC. As for the experimental part: Size exclusion chromatography analyses were performed on fusion proteins containing various therapeutic proteins and unstructured recombinant proteins of increasing length. […] Chromatogram profiles were monitored using OD214 nm and OD280 nm. Column calibration for all assays were performed using a size exclusion calibration standard from BioRad; the markers include thyroglobulin (670 kDa), bovine gamma-globulin (158 kDa), chicken ovalbumin (44 kDa), equine myoglobuin (17 kDa) and vitamin B12 (1.35 kDa). […] Based on the SEC analyses for all constructs evaluated, the apparent molecular weights, the apparent molecular weight factor (expressed as the ratio of apparent molecular weight to the calculated molecular weight) and the hydrodynamic radius (RH in nm) are shown in Table 23. […] Accordingly, it is expected that fusion proteins comprising growth and XTEN have reduced renal clearance, contributing to increased terminal half-life and improving the therapeutic or biologic effect relative to a corresponding un-fused biologic payload protein.
On the technique in general: In gel filtration, larger molecules generally elute earlier.

Series [2] deals with T1, GLP-2 receptor (GLP2 G-protein coupled receptor) on transfected GLP2R cell line (Millipore, Cat #HTS164C) (human, UniProt O95838 1-553).
T1 sequence (looked up): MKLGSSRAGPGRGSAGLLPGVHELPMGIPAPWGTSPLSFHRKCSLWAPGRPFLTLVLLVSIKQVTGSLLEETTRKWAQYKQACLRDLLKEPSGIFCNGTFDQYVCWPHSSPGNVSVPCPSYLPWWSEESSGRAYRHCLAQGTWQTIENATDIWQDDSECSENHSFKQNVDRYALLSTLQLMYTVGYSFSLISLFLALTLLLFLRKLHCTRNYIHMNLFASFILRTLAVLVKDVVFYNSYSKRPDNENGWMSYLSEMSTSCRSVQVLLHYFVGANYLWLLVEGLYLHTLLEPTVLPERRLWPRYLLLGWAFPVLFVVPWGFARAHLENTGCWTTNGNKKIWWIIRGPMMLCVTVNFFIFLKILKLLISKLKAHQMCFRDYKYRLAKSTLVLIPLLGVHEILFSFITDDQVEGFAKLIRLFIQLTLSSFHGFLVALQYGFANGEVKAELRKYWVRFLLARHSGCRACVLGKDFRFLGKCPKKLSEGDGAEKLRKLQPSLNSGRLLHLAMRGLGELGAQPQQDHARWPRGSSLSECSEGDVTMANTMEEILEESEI
Kind of series: cell-based or functional assay.

B1: Glucagon-Y288: glucagon fused to unstructured polypeptide Y288 (protein)
chain: HSQGTFTSDYSKYLDSRRAQDFVQWLMNTGGEGSGEGSEGEGSEGSGEGEGSEGSGEGEGGSEGSEGEGGSEGSEGEGGSEGSEGEGSGEGSEGEGGSEGSEGEGSGEGSEGEGSEGGSEGEGGSEGSEGEGSGEGSEGEGGEGGSEGEGSEGSGEGEGSGEGSEGEGSEGSGEGEGSGEGSEGEGSEGSGEGEGSEGSGEGEGGSEGSEGEGSEGSGEGEGGEGSGEGEGSGEGSEGEGGGEGSEGEGSGEGGEGEGSEGGSEGEGGSEGGEGEGSEGSGEGEGSEGGSEGEGSEGGSEGEGSEGSGEGEGSEGSGE
On to B1, for which, in series [1], the hydrodynamic radius is recorded as at least 7 nm.

B2: GLP2-2G-XTEN_AE864 fusion protein (ligand)
chain: HGDGSFSDEMNTILDNLAARDFINWLIQTKITDGGSPAGSPTSTEEGTSESATPESGPGTSTEPSEGSAPGSPAGSPTSTEEGTSTEPSEGSAPGTSTEPSEGSAPGTSESATPESGPGSEPATSGSETPGSEPATSGSETPGSPAGSPTSTEEGTSESATPESGPGTSTEPSEGSAPGTSTEPSEGSAPGSPAGSPTSTEEGTSTEPSEGSAPGTSTEPSEGSAPGTSESATPESGPGTSTEPSEGSAPGTSESATPESGPGSEPATSGSETPGTSTEPSEGSAPGTSTEPSEGSAPGTSESATPESGPGTSESATPESGPGSPAGSPTSTEEGTSESATPESGPGSEPATSGSETPGTSESATPESGPGTSTEPSEGSAPGTSTEPSEGSAPGTSTEPSEGSAPGTSTEPSEGSAPGTSTEPSEGSAPGTSTEPSEGSAPGSPAGSPTSTEEGTSTEPSEGSAPGTSESATPESGPGSEPATSGSETPGTSESATPESGPGSEPATSGSETPGTSESATPESGPGTSTEPSEGSAPGTSESATPESGPGSPAGSPTSTEEGSPAGSPTSTEEGSPAGSPTSTEEGTSESATPESGPGTSTEPSEGSAPGTSESATPESGPGSEPATSGSETPGTSESATPESGPGSEPATSGSETPGTSESATPESGPGTSTEPSEGSAPGSPAGSPTSTEEGTSESATPESGPGSEPATSGSETPGTSESATPESGPGSPAGSPTSTEEGSPAGSPTSTEEGTSTEPSEGSAPGTSESATPESGPGTSESATPESGPGTSESATPESGPGSEPATSGSETPGSEPATSGSETPGSPAGSPTSTEEGTSTEPSEGSAPGTSTEPSEGSAPGSEPATSGSETPGTSESATPESGPGTSTEPSEGSAPG
On to B2, for which, in series [2], the “EC50 (calcium flux, FLIPR TETRA, GLP2R cell line)” value was found to be 370 nM and the “potency relative to GLP2-2G (calcium flux, GLP2R cell line)” value is about 2%.
